Reference: publication PMC8633023, “Crystal structures of phosphatidyl serine synthase PSS reveal the catalytic mechanism of CDP-DAG alcohol O-phosphatidyl transferases” (Nature Communications, 2021)

Legend:
[1] = biological target: T1, MjPSS (phosphatidyl serine synthase, PS synthase) (Methanocaldococcus jannaschii, UniProt Q58609); test: X-ray crystal structure (SeMet protein, […] Å); MST also shows binding; details: open state with CDP-DAG, Ca2+, Mg2+; Ser1 catalytic site, Ser2 judged artefact; in 7POW covalent to CDP-DAG in one protomer
T1 construct: gene pssA; tag used for MST labelling), E. coli C41(DE3) membranes, solubilised in decyl maltoside; dimer

[2] = biological target: T1, MjPSS (phosphatidyl serine synthase, PS synthase); test: activity measured as a function of citrate; crystal structure ([…] Å); assay type: biochemical; details: reversible; reversed by more serine, blocks or competes with serine; structural site near Asn109, Lys111, Lys157, called non-specific by authors
purified protein = substrate: N[C@@H](CO)C(=O)O; test: purified protein; details: co-substrate CDP-DAG, co-purified Mg2+ and Ca2+, 50 mM Tris-HCl pH 7.0, 50 mM NaCl, 0.2% DM, temperature of this assay not given
[3] = biological target: the molecule itself; test: crystal structure; crystals grown in meso (lipidic cubic / sponge phase, monoolein with 2% (w/w) CDP-DAG), 292 K; two molecules in the asymmetric unit

For `N[C@@H](CO)C(=O)O` [L-serine], the “X-ray crystal structure (SeMet protein, 1.85 Å); MST also shows binding” value [1] was 7B1L for the open state with CDP-DAG and two serines.

With `O=C(O)CC(O)(CC(=O)O)C(=O)O` [citrate] the inhibition [2] was “binding of citrate reversibly inhibits MjPSS, and that the inhibition is reversed by addition of more serine”.

B1: MjPSS (phosphatidyl serine synthase, PS synthase) (Methanocaldococcus jannaschii DSM 2661) (protein)
chain: MFSIRKIITISDYVTMLNIITGLLAILLNSFSLIYLSIIFDSLDGYVARKTGTVSDFGAELDSISDVVSFGVAPAYLLYNNFESNLALISAIIFCLCGALRLARFGILNVKGFIGLPIPAGALLLVGFCQLINSYLINSILAILIGLLMISDIKYPKYPNKIFIYIFAVSLCLAIVGIPHFALMLCLIYAIYGIIKYIRGD
B1 gave a Km (purified protein) of 460 ± 120 µM and a kcat (purified protein) of 0.123 ± 0.007 s⁻¹.

B2: phosphatidyl serine synthase from Methanocaldococcus jannaschii (native MjPSS) (enzyme)
chain: MFSIRKIITISDYVTMLNIITGLLAILLNSFSLIYLSIIFDSLDGYVARKTGTVSDFGAELDSISDVVSFGVAPAYLLYNNFESNLALISAIIFCLCGALRLARFGILNVKGFIGLPIPAGALLLVGFCQLINSYLINSILAILIGLLMISDIKYPKYPNKIFIYIFAVSLCLAIVGIPHFALMLCLIYAIYGIIKYIRGD
notes: phosphatidyl serine synthase (CDP-DAG alcohol O-phosphatidyl transferase, EC 2.7.8.8) of Methanocaldococcus jannaschii; the vector pSKB2LNB adds an N-terminal His6-Tag and a PreScission site; 400 protein residues are modelled for the two protomers; also called PS synthase; wild-type MjPSS; source: E. coli C41-(DE3), purified from membranes (DM-solubilised, Co2+ chelating Sepharose, size-exclusion …)
For B2, the “stoichiometry N” value [3] was 2.

B3: Seleno-methionine (SeMet) MjPSS (enzyme, Methanocaldococcus jannaschii)
chain: MFSIRKIITISDYVTMLNIITGLLAILLNSFSLIYLSIIFDSLDGYVARKTGTVSDFGAELDSISDVVSFGVAPAYLLYNNFESNLALISAIIFCLCGALRLARFGILNVKGFIGLPIPAGALLLVGFCQLINSYLINSILAILIGLLMISDIKYPKYPNKIFIYIFAVSLCLAIVGIPHFALMLCLIYAIYGIIKYIRGD
modifications: selenomethionine in place of methionine
notes: phosphatidyl serine synthase (CDP-DAG alcohol O-phosphatidyl transferase, EC 2.7.8.8) of Methanocaldococcus jannaschii; same construct as m1, SeMet substituted; Same construct as m1; also called SeMet-labelled protein; SeMet substituted protein; source: E. coli, M9 minimal medium with SeMet, IPTG-induced; purified as native MjPSS (final SEC on Superdex 200 Increase)
In the case of B3, the “stoichiometry N” value [3] is reported as 2.
